Among the data in article PMC4410396 (Acta Naturae, 2015) are Km and kcat values, retold here.

For orientation: kcat means the number of substrate molecules converted per active site and unit of time at saturation.

In data set [1] the target is T1, MorFDH (Moraxella sp., UniProt O08375, A199G).
T1 construct: gene fdh; recombinant, plasmid pMorFDH2, E. coli BL21(DE3)/pLysS; no tag mentioned; Phenyl Sepharose and Sephadex G-25
T1 sequence (O08375 2-402 A199G): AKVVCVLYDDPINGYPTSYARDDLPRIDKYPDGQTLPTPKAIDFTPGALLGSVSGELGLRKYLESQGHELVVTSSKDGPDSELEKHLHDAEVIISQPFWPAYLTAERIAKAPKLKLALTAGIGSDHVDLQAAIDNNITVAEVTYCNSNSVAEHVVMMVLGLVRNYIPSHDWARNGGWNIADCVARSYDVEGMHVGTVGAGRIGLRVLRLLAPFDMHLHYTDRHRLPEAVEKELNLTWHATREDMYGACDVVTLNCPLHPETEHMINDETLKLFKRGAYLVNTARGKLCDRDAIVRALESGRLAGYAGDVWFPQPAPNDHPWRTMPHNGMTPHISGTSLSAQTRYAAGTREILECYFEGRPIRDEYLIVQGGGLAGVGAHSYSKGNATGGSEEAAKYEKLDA
In words: spectrophotometric NAD(P)H formation at […] nm. The format is biochemical. To be noted: saturating formate (>15 KM); 0.1 M sodium phosphate pH 7.0, 30°C; read-out: KMKNAD^+.

Data set [2] relates to T2, NC(=O)c1ccc[n+]([C@@H]2O[C@H](COP(=O)(O)OP(=O)(O)OC[C@H]3O[C@@H](n4cnc5c(N)ncnc54)[C@H](O)[C@@H]3O)[C@@H](O)[C@H]2O)c1.
T2 construct: recombinant, plasmid pPseFDH8, E. coli BL21(DE3)/pLysS; no tag mentioned; Phenyl Sepharose and Sephadex G-25
Description: purified protein. The class given is biochemical, Pseudomonas sp. 101. To be noted: saturating formate (>15 KM), 0.1 M sodium phosphate pH 7.0, 30°C.

Data set [3] deals with T3, NC(=O)c1ccc[n+]([C@@H]2O[C@H](COP(=O)(O)OP(=O)(O)OC[C@H]3O[C@@H](n4cnc5c(N)ncnc54)[C@H](OP(=O)(O)O)[C@@H]3O)[C@@H](O)[C@H]2O)c1.
T3 construct: recombinant, plasmid pPseFDH8, E. coli BL21(DE3)/pLysS; no tag mentioned; Phenyl Sepharose and Sephadex G-25
In words: purified protein. The class given is biochemical, Pseudomonas sp. 101. To be noted: saturating formate (>15 KM), 0.1 M sodium phosphate pH 7.0, 30°C.

Substrate in data set [4]: NC(=O)c1ccc[n+]([C@@H]2O[C@H](COP(=O)(O)OP(=O)(O)OC[C@H]3O[C@@H](n4cnc5c(N)ncnc54)[C@H](OP(=O)(O)O)[C@@H]3O)[C@@H](O)[C@H]2O)c1
Description: purified protein. The following applies: saturating formate (>15 KM), 0.1 M sodium phosphate pH 7.0, 30°C, printed with an asterisk. The format is biochemical, Pseudomonas sp. 101.

With `NC(=O)c1ccc[n+]([C@@H]2O[C@H](COP(=O)(O)OP(=O)(O)OC[C@H]3O[C@@H](n4cnc5c(N)ncnc54)[C@H](O)[C@@H]3O)[C@@H](O)[C@H]2O)c1` [NAD^+], the Km in data set [1] came to 45 ± 3 µM.
With PseFDH (Pseudomonas sp. 101; A199G), the Km in data set [2] stood at 35 ± 2 µM.
Take PseFDH (Pseudomonas sp. 101; D222S): in data set [2], the Km turned out to be 710 ± 45 µM and the catalytic constant (kcat) came out at 5.0 ± 0.3 s⁻¹.
Consider “PseFDH (Pseudomonas sp. 101; A199G/D222S)”, for which, in data set [2], the Km was 540 ± 42 µM and the kcat turned out to be 5.0 ± 0.2 s⁻¹. Further, in data set [3], the Km was determined as 280 ± 25 µM and the kcat came to 1.8 ± 0.2 s⁻¹.

B1: PseFDH (Pseudomonas sp. 101) (protein)
chain: AKVLCVLYDDPVDGYPKTYARDDLPKIDHYPGGQTLPTPKAIDFTPGQLLGSVSGELGLRKYLESNGHTLVVTSDKDGPDSVFERELVDADVVISQPFWPAYLTPERIAKAKNLKLALTAGIGSDHVDLQSAIDRNVTVAEVTYCNSISVAEHVVMMILSLVRNYLPSHEWARKGGWNIADCVSHAYDLEAMHVGTVAAGRIGLAVLRRLAPFDVHLHYTDRHRLPESVEKELNLTWHATREDMYPVCDVVTLNCPLHPETEHMINDETLKLFKRGAYIVNTARGKLCDRDAVARALESGRLAGYAGDVWFPQPAPKDHPWRTMPYNGMTPHISGTTLTAQARYAAGTREILECFFEGRPIRDEYLIVQGGALAGTGAHSYSKGNATGGSEEAAKFKKAV
notes: recombinant, plasmid pPseFDH8, E. coli BL21(DE3)/pLysS; no tag mentioned; Phenyl Sepharose and Sephadex G-25
Turning to B1, the catalytic constant (kcat) in data set [4] worked out at 1.3 ± 0.1 s⁻¹.
